T1: Chordin-like 2 (Homo sapiens, UniProt Q6WN34)
T1 construct: purchased R&D Systems
T1 sequence (Q6WN34 26-429): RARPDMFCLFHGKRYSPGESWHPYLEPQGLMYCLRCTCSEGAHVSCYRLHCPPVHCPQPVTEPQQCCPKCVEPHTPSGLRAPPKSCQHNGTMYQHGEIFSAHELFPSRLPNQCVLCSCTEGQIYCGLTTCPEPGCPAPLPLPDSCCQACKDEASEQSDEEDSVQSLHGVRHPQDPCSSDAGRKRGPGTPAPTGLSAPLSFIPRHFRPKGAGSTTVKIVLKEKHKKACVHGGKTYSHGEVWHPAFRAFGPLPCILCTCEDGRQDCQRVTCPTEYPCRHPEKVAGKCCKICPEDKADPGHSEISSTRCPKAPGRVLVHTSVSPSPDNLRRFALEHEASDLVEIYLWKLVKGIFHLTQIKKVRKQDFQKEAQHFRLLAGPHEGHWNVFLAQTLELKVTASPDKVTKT

T2: Coco (Homo sapiens, UniProt Q8N907)
T2 construct: purchased R&D Systems
T2 sequence (Q8N907 23-189): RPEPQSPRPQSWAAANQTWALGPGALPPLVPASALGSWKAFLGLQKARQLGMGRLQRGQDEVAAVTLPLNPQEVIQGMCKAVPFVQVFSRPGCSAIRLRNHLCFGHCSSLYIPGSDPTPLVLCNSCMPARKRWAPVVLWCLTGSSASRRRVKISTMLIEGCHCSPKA

T3: Noggin (Homo sapiens, UniProt Q13253)
T3 construct: purchased R&D Systems
T3 sequence (Q13253 28-232): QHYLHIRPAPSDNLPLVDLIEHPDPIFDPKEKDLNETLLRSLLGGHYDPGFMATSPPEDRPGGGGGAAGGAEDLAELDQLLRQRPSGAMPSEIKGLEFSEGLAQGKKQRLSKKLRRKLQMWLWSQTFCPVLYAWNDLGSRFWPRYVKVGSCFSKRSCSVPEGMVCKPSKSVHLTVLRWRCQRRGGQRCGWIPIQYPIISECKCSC


Legend:
Chordin-like 2 = molecular target: T1, Chordin-like 2; assay: BMP inhibitor activity, hepcidin promoter luciferase: Chordin-like 2; type: cell-based
Protocol: (§1) Briefly described, Hep3B2 cells stably transfected with a hepcidin promoter luciferase construct (hereinafter, referred to as Hep3B2_HepPro_luc cells) were used for BMP inhibitor experiments. Hep3B2_HepPro_luc cells may be plated at 30,000 cells per well in a tissue culture treated 96 well plate in DMEM (Hyclone) 5% FBS (Gibco) supplemented with non-essential amino acids (Hyclone) and 200 μg/ml gentecin (Hyclone) for 24 hours. Cells were then starved in OMEM+0.2% BSA for 5 hours. Cells were treated with a mixture of human BMP7 proteins and variants thereof in OMEM (Gibco)+0.2% BSA (Gibco) for 18 hours then developed for luciferase activity utilizing Luciferase reporter Gene Assay Kit (Roche). BMP7 proteins were added at concentrations in the linear range of the assay, at 1 nM and 100 pM. Inhibitors were added at various concentrations in molar excess of the particular BMP7 protein being tested. All BMP inhibitors except Follistatin were purchased from R&D Systems. Follistatin and BMP7 proteins and variants thereof were generated at Eli Lilly and Company.

Follistatin = molecular target: T4, Follistatin (Homo sapiens, UniProt P19883); assay: BMP inhibitor activity, hepcidin promoter luciferase: Follistatin; type: cell-based
T4 construct: made in house
T4 sequence (P19883 30-344, species assumed): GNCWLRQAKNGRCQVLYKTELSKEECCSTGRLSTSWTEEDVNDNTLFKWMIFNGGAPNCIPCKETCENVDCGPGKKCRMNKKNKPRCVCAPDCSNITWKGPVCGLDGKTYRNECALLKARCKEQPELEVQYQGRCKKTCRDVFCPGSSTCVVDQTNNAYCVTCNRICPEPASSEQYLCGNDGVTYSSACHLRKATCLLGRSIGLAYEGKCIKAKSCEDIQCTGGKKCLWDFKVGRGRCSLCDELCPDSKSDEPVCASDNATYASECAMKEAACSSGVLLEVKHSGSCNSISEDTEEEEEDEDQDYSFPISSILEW
Protocol: as §1

Chordin = assay: BMP inhibitor activity, hepcidin promoter luciferase: Chordin; type: cell-based
Protocol: as §1

Coco = molecular target: T2, Coco; assay: BMP inhibitor activity, hepcidin promoter luciferase: Coco; type: cell-based
Protocol: as §1

Noggin = molecular target: T3, Noggin; assay: BMP inhibitor activity, hepcidin promoter luciferase: Noggin; type: cell-based
Protocol: as §1

[1] = Stir-induced aggregation (solubility) assay; type: physicochemical; conditions: 40 μg/mL, pH 7.4, stirred 400 rpm
Protocol: Solubility/physical stability of human BMP7 protein and human BMP7 protein variants may be measured in a stir-induced aggregation assay. Proteins are diluted to 40 μg/mL with assay buffer (50 mM sodium phosphate, 150 mM NaCl, pH 7.4) to a total volume of 2 mL. This solution may be put in a 7 mL glass vial containing one ‘flea’ stir bar and stirred at 400-rpm at room temperature. At periodic intervals (typically 0, 30, 60, 90, 120, and 150 minutes) a 150 μL aliquot may be withdrawn and centrifuged for 2 minutes at 16,000×g in a 1.5 mL tube. The supernatant (120 μL) may be transferred to an HPLC vial and the amount of remaining protein may be determined by reversed-phase HPLC under the following conditions: Zorbax C8 SB-300® column (3.5 micron, 4.6×50 mm), mobile phase: A buffer=0.1% TFA (v/v) in water, B buffer=0.085% TFA (v/v) in acetonitrile; flow rate at 1 mL/minute; column heated to 60° C.; autosampler cooled to 10° C., 214 nm UV detection, 80 μL injection, and 20 minute run time using the linear gradient indicated below. From the HPLC chromatograms (not shown) the protein peak or peaks (e.g., mature and pro domains) are integrated and percent change from initial peak area may be calculated.

[2] = Chordin-like 2, molar excess 0.1X
[3] = Chordin-like 2, molar excess 1X
[4] = Chordin-like 2, molar excess 10X
[5] = Chordin-like 2, molar excess 100X, Hep3B2_HepPro_luc cells, 18 hours
[6] = molar excess 100X, Hep3B2_HepPro_luc cells, 18 hours

Row | % inhibition (Chordin-like 2; [2]) [%] | % inhibition (Chordin-like 2; [3]) [%] | % inhibition (Chordin-like 2; [4]) [%] | % inhibition (Follistatin; molar excess 0.1X) [%] | % inhibition (Follistatin; molar excess 1X) [%] | % inhibition (Follistatin; molar excess 10X) [%] | % inhibition (Chordin; molar excess 0.1X) [%] | % inhibition (Chordin; molar excess 1X) [%] | % inhibition (Chordin; molar excess 10X) [%] | % inhibition (Coco; molar excess 0.1X) [%] | % inhibition (Coco; molar excess 1X) [%] | % inhibition (Coco; molar excess 10X) [%] | % inhibition (Noggin; molar excess 0.1X) [%] | % inhibition (Noggin; molar excess 1X) [%] | % inhibition (Noggin; molar excess 10X) [%] | Molecule | Percent of Material Precipitated ([1]; 0 minutes) [%] | Percent of Material Precipitated ([1]; 30 minutes) [%] | Percent of Material Precipitated ([1]; 60 minutes) [%] | Percent of Material Precipitated ([1]; 90 minutes) [%] | Percent of Material Precipitated ([1]; 120 minutes) [%] | further results
1 | 8.9 | 55.9 | 87.5 | −10.4 | 5.9 | 29.5 | −15.1 | −2.2 | 18.9 | −10.2 | 4.0 | 17.4 | −5.3 | 24.8 | 84.8 | Wild type human pro-BMP7: homodimers of wild type human mature BMP7 in a non-covalent complex with wild type human pro-domain [reference compound] | 0 | 8 | 42 | 51 | 65 | % inhibition (Chordin-like 2; [5]): 88.2%; % inhibition (Follistatin; [6]): 79.8%; % inhibition (Chordin; [6]): 76.5%; % inhibition (Coco; [6]): 81.6%; % inhibition (Noggin; [6]): 87.3%; Percent of Material Precipitated ([1]; 150 minutes): 72%
2 | −3.2 | −1.0 | 9.0 | 10.6 | 10.0 | 23.8 | 6.8 | 5.2 | 5.6 | 7.0 | 7.3 | 28.5 | −7.2 | −6.9 | −1.2 | Human mature BMP7 protein variant F9 (SEQ ID NO: 8): homodimer wherein each monomeric subunit has SEQ ID NO: 8 (Y65G/I86L/F93V/N110G/Y128W), disulfide linked (protein, homodimer, disulfide linked) STGSKQRSQNRSKTPKNQEALRMANVAENSSSDQRQACKKHELYVSFRDLGWQDWIIAPEGYAAGYCEGECAFPLNSYMNATNHALVQTLVHVINPETVPKPCCAPTQLGAISVLYFDDSSNVILKKWRNMVVRACGCH | 0 | 7 | 23 | 24 | 37 | % inhibition (Chordin-like 2; Chordin-like 2, molar excess 0.01X): −1.5%; % inhibition (Follistatin; molar excess 0.01X): 3.9%; % inhibition (Chordin; molar excess 0.01X): 3.7%; % inhibition (Coco; molar excess 0.01X): 2.3%; % inhibition (Noggin; molar excess 0.01X): −2.6%; Percent of Material Precipitated ([1]; 150 minutes): 39%
3 | −13.7 | 49.0 | 69.5 | −16.6 | −11.9 | 21.1 | −13.1 | −9.2 | 21.3 | −23.6 | −25.9 | 37.6 | −12.2 | 36.7 | 72.8 | Wild type human mature BMP7 (SEQ ID NO: 2): dimer of two glycosylated, 139 amino acid disulfide-linked proteins of about 35 kDa, SEQ ID NO: 2 (protein, listed as Homo sapiens, disulfide-linked glycosylated homodimer) STGSKQRSQNRSKTPKNQEALRMANVAENSSSDQRQACKKHELYVSFRDLGWQDWIIAPEGYAAYYCEGECAFPLNSYMNATNHAIVQTLVHFINPETVPKPCCAPTQLNAISVLYFDDSSNVILKKYRNMVVRACGCH | 100 | 100 | 100 | 100 | 100 | % inhibition (Chordin-like 2; [5]): 71.9%; % inhibition (Follistatin; [6]): 54.7%; % inhibition (Chordin; [6]): 70.9%; % inhibition (Coco; [6]): 77.4%; % inhibition (Noggin; [6]): 73.7%; Percent of Material Precipitated ([1]; 150 minutes): 100%

From patent US11466066B2, “Variants of human BMP7 protein” (ELI LILLY AND COMPANY, priority 2017, dated 2022)
